The values that follow come from publication doi:10.1101/2025.07.28.667101.

The target of the assay is poly-C3-GFOGMR (disulfide-linked polymer of the triple-helical peptide C3-GFOGMR). Nature of the assay: ELISA.

Substance “GST-α2I domain E318W mutant (from UniProt P17301 169-366) (domain or fragment)” displayed an affinity relative to the T221A mutant of 0.0033 fold.
